Assay results reported in patent US5456909A, “Glycoform fractions of recombinant soluble complement receptor 1 (sCR1) having extended half-lives in vivo” (T Cell Sciences, Inc., priority 1992, dated 1995).
“And” between values parts separate entries of the source, which are not always exact repeats. Equal entries are not always repeated.

Legend:
[1] = Pharmacokinetic studies 6 and 8: iv TP10HD-CCW and TP10HD-CCS in rabbits, radiometric and immunoassay; format: in vivo, Dutch rabbits; details: 1 mg/kg
Method: In Studies 6 and 8, iodination was performed by the iodogen method (Fraker et al., 1978, Biochem Biophys Res Commun 80:849); the average degree of ^125 I substitution was 0.56 atoms/molecule of protein resulting in a specific activity of 22.7 kBq/mg for STUDY 6, and the average degrees of ^125 I substitution was 0.76 atoms/molecule of protein resulting in a specific activity of 29.5 kBq/mg for STUDY 8.
Studies 6 and 8: As described in STUDY 2 except that the radioiodinated TP10HD-CCW was added to ~1% w/w.
In Studies 6 and 8, test material was injected iv into a group of 5 Dutch rabbits (approximately 1 kg) at a dose of 1 mg/kg. Blood samples, 1 ml, were taken from an ear artery immediately predosing and at 5, 10, 20, 30, 60, 120 and 180 minutes, mixed with heparin, and radioactivity determined in an aliquot by scintillation counting after precipitation with trichloroacetic acid.
Plasma samples were analyzed for residual test material by an enzyme immunoassay (EIA) specific for TP10HD. Pharmacokinetic half-life was calculated from both the radiometric and immunoassay data.
Precipitation with trichloroacetic acid was performed as follows: Plasma (20 μl) was precipitated by sequential addition of 450μl of 0.13M Tris HCl, 4% SDS, 10% glycerol, pH 6.8 buffer, followed by 30 μl of fetal bovine serum and 500μl of 20% trichloroacetic acid. After each addition, the tubes were vigorously mixed and incubated for […] at 4° C.; the pellets of precipitable protein were collected by centrifugation at 1000×g for 10 minutes, the supernatants removed and discarded, and the residual radioactivity measured by scintillation counting.
A commercially available assay was utilized (Cellfree® CD35, T Cell Diagnostics, Inc. Cambridge, Mass.). In brief, polystyrene beads coated with polyclonal rabbit anti-TP10HD antibodies were simultaneously incubated with the diluted test sample and a horse radish peroxidase-conjugated polyclonal rabbit anti-TP10HD antibody. Following incubation, the beads were removed from the reaction mixture, washed of nonspecifically bound material, and subsequently incubated in the presence of an appropriate dilution of substrate. Color development was terminated by the addition of sulfuric acid and the absorbance (optical density) determined as a measure of TP10HD concentration.

[2] = Pharmacokinetic studies 1, 4, 5, 7, 9: iv clearance of 125I-labelled TP10HD preparations in rats; format: in vivo, Sprague-Dawley rats; details: 1 mg/kg
Method: In Studies 1, 2, 4, 5, 7 and 9, Iodination was carried out by the chloramine-T procedure. Sodium phosphate buffer, 0.5M, pH 7.6, 50 μl, was added to 1 mCi of Na-^125 I (New England Nuclear, Boston, Mass.) as supplied. The sample of TP10HD, typically 100 μg in 100 μl (Study 5=69 μg; Study 7=34 μg; Study 9=91 μg), was added followed by 50 μl of a 15 mg/ml solution of freshly prepared chloramine-T. The reaction mixture was vigorously shaken for 60 seconds. Sodium metabisulfite (50 μl, 15 mg/ml) and sodium iodide (100 μl, 10 mg/ml) were successively pipetted into the reaction vial. The reaction mixture was passed onto a PD10 column (Pharmacia Fine Chemicals, Piscataway, N.J.), pre-equilibrated with phosphate buffered saline, pH 7.2-7.4, containing 0.1% bovine serum albumin (Sigma Chemical Company, St. Louis, Mo.). Ten 0.5 ml fractions were collected and 2 μl aliquots were counted directly and after combining with 100 μl of a 0.1% bovine serum albumin solution and 1 ml of 20% trichloroacetic acid. After incubation at 0° C. for 1 hour, the acid-precipitable protein associated radioactivity was collected by centrifugation for 10 minutes at 1000×g and quantitated by scintillation counting. Fractions containing >90% of the total radioactivity in the acid precipitate were pooled for further use.
Study 1: Radioiodinated TP10HD-CX was mixed with purified unlabeled TP10HD-CX to yield a dosing solution suitable for administering a 1 mg/kg total TP10HD dose containing 16-25×10^6 cpm of radiolabeled TP10HD-CX.
Study 4: Radioiodinated TP10HD-CC was mixed with purified unlabeled TP10HD-CC to yield a dosing solution suitable for administering a 1 mg/kg or a 3 mg/kg total TP10HD dose containing ~20×10^6 cpm.
Study 5: Radioiodinated TP10HD-CCW was mixed with purified unlabeled TP10HD-CCW to yield a dosing solution suitable for administering a 1 mg/kg total TP10HD dose containing ~20×10^6 cpm.
Study 7: Radiolabeled TP10HD-CCS was mixed with purified unlabeled TP10HD-CCS to yield a dosing solution suitable for administering a 1 mg/kg total TP10HD dose containing ~20×10^6 cpm.
Study 9: Radioiodinated TP10HD-CXD was mixed with purified unlabeled TP10HD-CXD to yield a dosing solution suitable for administering a 1 mg/kg total TP10HD dose containing ~20~10^6 cpm.
In Studies 1, 4, 5, 7 and 9, test material was injected intravenously (iv) into four Sprague-Dawley rats (2 male, 2 female). Blood samples were obtained from the retroorbital plexus at 1, 3, 5, 10, 20, 30, 45, and 60 minutes post injection, and the radioactivity determined. Additional post infusion blood samples were taken at 2, 3, and 4 hours postinjection (STUDY 4) and at 120 minutes (STUDY 5). The plasma fraction of the remaining blood sample was retained for further analysis.
Plasma samples were analyzed for residual test material by measuring:
(1) total residual radioactivity;
(2) percentage of radiolabeled material precipitated with TCA;
(3) residual acid precipitable radioactivity in the presence of SDS; and
(4) material immunologically identifiable in an enzyme immunoassay as TP10HD.
Radioisotope data was quantitated as total cpm/ml blood or plasma and as the percentage of a theoretical time zero value. Pharmacokinetic half-life was calculated from the radiometric data.
In Study 9, removal of N-linked oligosaccharide chains was performed by n-glycanase digestion, performed according to manufacturer's instructions (Genzyme Corporation, Boston, Mass.). Typically, 58 μg TP10HD-CX was incubated with 10.5 units of n-glycanase for 18 hours, 37° C., in 0.2M sodium phosphate, pH 8.6 buffer.
Precipitation with trichloroacetic acid was performed as follows: Plasma (20 μl) was precipitated by sequential addition of 450μl of 0.13M Tris HCl, 4% SDS, 10% glycerol, pH 6.8 buffer, followed by 30 μl of fetal bovine serum and 500μl of 20% trichloroacetic acid. […]

[3] = tested on: complement-mediated lysis of antibody coated SRBC; experiment: Inhibition of complement-mediated hemolysis of antibody-sensitized SRBC in vitro; format: cell-based, human; details: for IH50 (concentration giving 50% inhibition of hemolysis): SRBC, human serum as complement source; for antihemolytic potency comparison, in words: in vitro
Method: SRBC presensitized with rabbit anti-SRBC antibody (Diamedix, Miami, Fla.) were mixed in a V-bottom microtiter wells (Costar, Cambridge, Mass.) with an appropriate dilution of the test plasma and an aliquot of diluted human serum as a complement source. After incubation, 37° C., 1 hour, the unlysed red cells were pelleted by centrifugation, the supernatant transferred to corresponding flat bottom microwells (Costar, Cambridge, Mass.), and absorbance at 415 nm measured. Inhibition of complement-mediated lysis of the antibody coated SRBC was measured as a reduction in the absorbance in the presence of test sample.
A range of dilutions of TP10HD or TP10HD glycoform spanning 7.8 to 1000 ng/ml was examined for each sample.

Substance | % dose cleared, α-phase ([1]; immunoassay data) [%] | % dose cleared, β-phase ([1]; immunoassay data) [%] | Serum half-life, α-phase ([1]; immunoassay data) [h] | Serum half-life, β-phase ([1]; immunoassay data) [h] | Total Clearance ([1]; immunoassay data) [mL/min/kg] | % dose cleared, β-phase ([1]; radiometric data) | Peak (t = O) concentration ([1]; radiometric data) [µg/mL] | Serum half-life, β-phase ([1]; radiometric data) | Total Clearance ([1]; radiometric data) | Volume of Distribution, α-phase ([1]; radiometric data) [L/kg] | Volume of Distribution, β-phase ([1]; radiometric data) | α phase half-life [2] [h] | β phase half-life [2] [h] | IH50 (concentration giving 50% inhibition of hemolysis) [3] [ng/mL] | antihemolytic potency comparison, in words [3]
TP10HD-CCS: the strongly cationic form of TP10HD-CC isolated by preparative HPLC cation exchange chromatography | 73 | 27 | 0.167 | 1.27 | 1.24 | 25.5 ± 1.5% and ~25% | 14.6 ± 1.0 | 3.6 h and 3.608 ± 0.613 h | 0.85 ± 0.12 mL/min/kg and 0.85 mL/min/kg | 0.0698 ± 0.0048 | 162.0 ± 13.9 ml/kg and ~ 162 ml/kg | 0.111 | 2.22 | ~27 | no basis for concluding that TP10HD-CC, TP10HD-CCW and TP10HD-CCS differ in their potency
TP10HD-CCW: the weakly cationic form of TP10HD-CC isolated by preparative HPLC cation exchange chromatography | 30 | 70 | 0.233 | 6.27 | 0.1 | 69.1 ± 1.9% and ~70% | 17.8 ± 0.3 | 3.6 h and 3.61 ± 0.313 h | 0.26 ± 0.02 mL/min/kg and 0.26 mL/min/kg | 0.0562 ± 0.001 | 22.6 ± 1.9 ml/kg and ~ 23 ml/kg | 0.2035 | 1.67 | 44 | no basis for concluding that TP10HD-CC, TP10HD-CCW and TP10HD-CCS differ in their potency
